Measured values as given in US7256256B1, “CDK4 binding peptide” (United States of America as represented by the Secretary, …, priority 1999, dated 2007).

Legend:
[1] = molecular target: T1, CDK4 and cyclin D1 (Mus musculus, UniProt P30285); assay: In vitro CDK4 kinase assay on GST-RB, Western blot with phosphoserine 780/795 antibodies; format: biochemical; conditions: proteins added in two-fold increments from 75 ng to 300 ng; phosphoserine 780 antibody (identical with 795)
T1 construct: made in house; host or cells: Sf9 insect cells coinfected with baculovirus stocks (from C. J. Sherr)
T1 sequence (P25322 whole entry partner, one chain of several): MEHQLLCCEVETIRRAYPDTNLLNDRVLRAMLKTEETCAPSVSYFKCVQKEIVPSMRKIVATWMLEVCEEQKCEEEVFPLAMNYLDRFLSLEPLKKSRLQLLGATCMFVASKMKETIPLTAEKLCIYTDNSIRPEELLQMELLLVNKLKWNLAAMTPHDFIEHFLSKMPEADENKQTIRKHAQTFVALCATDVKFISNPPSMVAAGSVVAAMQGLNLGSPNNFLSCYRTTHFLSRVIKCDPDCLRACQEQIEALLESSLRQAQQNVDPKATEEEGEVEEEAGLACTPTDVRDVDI
Protocol: Active CDK4 was produced in Sf9 cells coinfected with baculovirus stocks encoding CDK4 and cyclin D1 (from C. J. Sherr).
The kinase assay was performed essentially as described by Kato, et al., Genes Dev, (1993), 7(3):331–42. The CDK4-specific kinase inhibitor p16 (from D. Beach, [as described in Serrano, et al., Nature, (1993), 366(6456): 704–7]) was used as a GST-p16 fusion added to the kinase reaction. The GST-RB fusion (767–928) was used as a kinase target as previously described Kato, et al., Genes Dev, (1993), 7(3):331–42.
To test for kinase inhibition, the various proteins and protein domains were added to the reaction in two-fold increments from 75 ng to 300 ng. […] For the GST constructs, total protein concentration was kept constant in the kinase reaction by adding GST protein. After the assay the total reaction was run on SDS PAGE gels and analyzed by Western blot analysis. Specific phosphorylation of RB was measured with rabbit polyclonal antibodies to RB phosphoserines 780 or 795 (New England Biolabs).

[2] = test system: 10T1/2 cells; assay: BrdU incorporation growth arrest assay in transfected 10T1/2 cells; format: cell-based, mouse; conditions: for growth inhibitory activity (BrdU positive cells): 10T1/2 cells, 20% fetal calf serum, one hour BrdU pulse, domains with NLS in pCDNA3 or GST-pCEFL
Protocol: 10T1/2 cells in growth medium were cotransfected with plasmids expressing full-sized MyoD(CMD1) or the indicated domains, either as GST fusions in GST-pCEFL or as subclones in pCDNA3, along with a lacZ expression construct, pCH110, to mark transfected cells. The various domains were targeted to the nucleus with a nuclear tag in the absence of an existing NLS.
Cultures were maintained in 20% fetal calf serum. 72 hours after transfection cultures were refed with the same medium and 12 hours later they were given a one hour pulse with BrdU (10 μM) prior to fixation, as previously described by Crescenzi et al., PNAS USA 1990 87(21):8442–6; and Sorrentino et al., Nature, 1990 345(6278):813–5. Cells were then reacted with rabbit anti-BrdU antibody (Jackson labs) and Xgal.

[3] = test system: C2C12 myoblasts; assay: RB phosphorylation and growth inhibition in cotransfected C2C12 myoblasts; format: cell-based, mouse
Excerpt: C2C12 myoblasts were cotransfected with a GST-pCEFL RB expression plasmid (RB aa 767–928) and pCDNA3 expression plasmids for full-sized or the C-terminus of MyoD(CMD1). GST-RB was recovered from the cells using methods known to those of skill in the art. The samples were adjusted for equal levels GST protein and loaded on SDS-PAGE gels for western analysis by phosphoserine 780 and 795-specific antibodies.

[4] = molecular target: T2, CDK4 (Mus musculus, UniProt P30285); assay: GST fusion pull-down binding assay with CDK4 from Sf9 cell extracts, anti-CDK4 immunoblot; parameters: made in house; host or cells: Sf9 insect cells, baculovirus; conditions: GST fusion protein on glutathione agarose; CDK4 from baculovirus infected Sf9 cell extracts
T2 sequence (P30285 1-303): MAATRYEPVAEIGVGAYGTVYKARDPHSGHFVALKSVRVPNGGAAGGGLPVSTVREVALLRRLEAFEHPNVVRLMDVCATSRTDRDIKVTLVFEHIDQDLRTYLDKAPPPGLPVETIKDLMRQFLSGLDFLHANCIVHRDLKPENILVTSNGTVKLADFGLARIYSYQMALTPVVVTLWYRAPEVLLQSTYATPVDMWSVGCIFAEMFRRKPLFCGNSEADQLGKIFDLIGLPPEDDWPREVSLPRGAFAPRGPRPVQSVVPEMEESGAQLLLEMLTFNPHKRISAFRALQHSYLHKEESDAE
Protocol: The Sf9 cell extract was incubated with agarasoe bound with either glutathione transferase (GST) alone, or GST fusion proteins encoding one of the four different vertebrate myogenic factors from chicken: CMD1 (MyoD), Ch-myogenin, Ch-myf5 an Ch-mrf4 using methods known to those of skill in the art. Any GST complexes formed were recovered on glutathione-Sepharose beads. The recovered GST complexes were then washed, heated in sample buffer and loaded on an SDS-PAGE gel.
The gel was then analyzed by immunoblot with anti-CDK4 affinity purified rabbit polyclonal antibody on HyBond ECL (Amersham). The anti-CKD4 antibody was diluted 1:2,000–5,000. The second antibody was HRP anti-rabbit and was diluted 1:10,000 (Pierce cat. no. 31460). The signal was detected using SuperSignal Ultra Reagent (Pierce cat. no. 34075).
Proteins were expressed in E. coli strain BL21 (DE3) and purified as described by Shirakata et al., Genes Dev. 1993 7(12A):2456–70. The MyoD-GST fusion proteins were bound to glutathione agaraose.
The binding experiments were performed with CDK4 produced in the baculovirus system (Kato et al., Genes Dev. 1993 7(3):331–42) essentially as described by Kaelin et al., Cell 1991 64(3):521–32.
Deletion mapping of the MyoD (CMD1) carboxy terminus narrowed the CDK4-binding region to a maximum of fifteen amino acids between residues 189–203, well outside the bHLH domain (FIG. 10b, lanes 4 and 5). To confirm that these fifteen amino acids bound CDK4, the fifteen amino acid peptide was joined to glutathione transferase and tested for its ability to bind the CDK4 from Sf9 cell extracts.

[5] = test system: CDK4 target sites, serines 780 and 795 of RB; assay: Phosphorylation of cotransfected GST-RB target in 10T1/2 cells, Western blot; format: cell-based, mouse; conditions: 48 hours after transfection, nuclear extracts
Protocol: The inhibitory activity of the fifteen amino acid CDK4 binding peptide on RB phosphorylation in cells was examined by fusing the fifteen amino acid CDK4-binding peptide of MyoD with a nuclear localization tag to the carboxy terminus of GFP and used in the same transfection protocol with GST-RB.
10T1/2 cells were cotransfected with a GST-RB target (amino acids 767–928) containing a nuclear localization tag, and either MyoD(CMD1) or the carboxy terminus of MyoD with an NLS.
48 hours after transfection, nuclear extracts of the 10T1/2 cells were prepared. The nuclear extracts were passed over glutathione agaraose to capture the GST-RB target.
Western blot analysis of the captured GST-RB target was performed with phosphoserine specific antibodies to the CDK4 target sites, serines 780 and 795. Gel loadings for the phosphoserine antibody analysis were adjusted to the same amount of GST-RB target protein by preliminary western analysis of the extracts (FIG. 13).

[6] = molecular target: T2, CDK4; assay: Mammalian two-hybrid luciferase reporter assay with vp16-CDK4 in 10T1/2 fibroblasts; format: cell-based; conditions: average of three experiments
Excerpt: The interaction between MyoD and CDK4 in vivo was examined using a mammalian version of the yeast two hybrid system described by Finkel et al., (1993) J Biol Chem 268, 5–8.
MyoD and myogenin (MGN) were each cloned into the gal4 DNA-binding domain vector, pM. CDK4 was inserted into the vp16 activation domain plasmid, pVP16 using methods known to those of skill in the art.
10T1/2 fibroblasts (3×10^5 cells per 60 mm dish or multiwell plate) grown in DMEM with either 10% fetal calf serum were co-transfected with either gal4-MyoD or gal4-MGN along with vp16-CDK4 and a luciferase reporter using Fugene-6 (Boehringer-Mannheim) according to the manufacturer's directions. 1 μg gal4 luciferase reporter, 2 μg each of the gal4 (pM vector, Clonetech) and vp16 (pvp16 vector, Clonetech) constructs, and 300 ng of the beta galactosidase reporter pCH110 (Pharmacia), a total of 5.3 μg DNA, were used in each transfection. The pSV2-beta galactosidase reporter was used to normalize transfection efficiencies.
After 24–36 hours, if required, cells were placed in 2% horse serum plus insulin (10 μg/ml) to induce differentiation and destabilize cyclin D1. […]
24–48 hours after transfection, the luciferase reporter assay was performed according to the manufacturer's directions (Promega, cat. no. E4030) and measured in a Victor 1420 Multilabel Counter. […]

Molecule | inhibition of CDK4-dependent phosphorylation of RB (GST-RB) in vitro [1] | growth inhibitory activity (BrdU positive cells) [2] | growth inhibitory effect when the peptide further includes nuclear localization signal (NLS) ([2]; data not shown) | CDK4 kinase activity and cell growth when expressed in cell nuclei [3] | binding to CDK4 [4] | phosphorylation of serines 780 and 795 on cotransfected RB target protein [5] | vp16 CDK4-dependent luciferase reporter activity [6]
fifteen amino acid CDK4-binding peptide: amino acids 189–203 of chicken MyoD (CMD1), SEQ ID NO: 1; tested as GST fusion, with NLS in cells | inhibit | as potent as full-sized MyoD(CMD1) in growth inhibitory activity | enhanced | inhibits CDK4 kinase activity and cell growth | bound CDK4 as efficiently as full-sized MyoD (CMD1) | – | –
N-terminus (amino acids 1–92): amino acids 1–92 of CMD1 (protein, UniProt P16075 1-92, looked up, fragment) MDLLGPMEMTEGSLCSFTAADDFYDDPCFNTSDMHFFEDLDPRLVHVGGLLKPEEHPHTRAPPREPTEEEHVRAPSGHHQAGRCLLWACKAC | neither the N-terminus (amino acids 1–92) nor the bHLH domain of MyoD(CMD1) inhibited CDK4 activity | ineffective in growth inhibition | – | – | – | – | –
bHLH domain of MyoD(CMD1): amino acids 93–153 of CMD1 (protein, UniProt P16075 93-153, looked up, fragment) KRKTTNADRRKAATMRERRRLSKVNEAFETLKRCTSTNPNQRLPKVEILRNAIRYIESLQA | neither the N-terminus (amino acids 1–92) nor the bHLH domain of MyoD(CMD1) inhibited CDK4 activity | effective at inhibiting cell growth | – | – | – | – | –
C-terminus of MyoD(CMD1): amino acids 153–298 of CMD1 (protein, UniProt P16075 153-298, looked up, fragment) ALLREQEDAYYPVLEHYSGESDASSPRSNCSDGMMEYSGPPCSSRRRNSYDSSYYTESPNDPKHGKSSVVSSLDCLSSIVERISTDNSTCPILPPAEAVAEGSPCSPQEGGNLSDSGAQIPSPTNCTPLPQESSSSSSSNPIYQVL | inhibit | – | – | – | CDK4 bound | reduced the phosphorylation of serines 780 and 795 | –
full-length MyoD(CMD1): full-sized chicken MyoD (CMD1), muscle specific bHLH transcription factor; used as GST, his-tag or gal4 constructs (protein, UniProt P16075 1-298, looked up, full-length GST, His or gal4 tagged, full-sized chicken MyoD (CMD1), muscle specific bHLH transcription factor; used as GST, his-tag or gal4 constructs) MDLLGPMEMTEGSLCSFTAADDFYDDPCFNTSDMHFFEDLDPRLVHVGGLLKPEEHPHTRAPPREPTEEEHVRAPSGHHQAGRCLLWACKACKRKTTNADRRKAATMRERRRLSKVNEAFETLKRCTSTNPNQRLPKVEILRNAIRYIESLQALLREQEDAYYPVLEHYSGESDASSPRSNCSDGMMEYSGPPCSSRRRNSYDSSYYTESPNDPKHGKSSVVSSLDCLSSIVERISTDNSTCPILPPAEAVAEGSPCSPQEGGNLSDSGAQIPSPTNCTPLPQESSSSSSSNPIYQVL | inhibit | showed growth inhibitory activity | – | – | binds specifically | reduced the phosphorylation of serines 780 and 795 | four-fold increase
Myogenin: chicken myogenic factor that does not bind CDK4, used as the control (protein, UniProt P17920 1-227, looked up, gal4 fusion) Myogenin: MELFETNPYFFPEQRFYDGENFLGSRLQGYEAAAFPERPEVTLCPESRGALEEKDSTLPEHCPGQCLPWACKICKRKTVSIDRRRAATLREKRRLKKVNEAFEALKRSTLLNPNQRLPKVEILRSAIQYIERLQSLLSSLNQQEREQRELRYRPAAPQPAAPSECGSGSSSCSPEWSTQLEFGTNPADHLLSDDQAEDRNLHSLSSIVESIAVEDVAVTFPEERVQN | no inhibitory effect | – | – | – | does not bind to CDK4 | – | –
